Data taken from patent US20260001953A1 (TWIST BIOSCIENCE, published 2026).

T1: mouse CD117 (mouse, UniProt P05532)
T1 construct: antigen of the Carterra SPR kinetics; also called murine CD117
T1 sequence (receptor, looked up): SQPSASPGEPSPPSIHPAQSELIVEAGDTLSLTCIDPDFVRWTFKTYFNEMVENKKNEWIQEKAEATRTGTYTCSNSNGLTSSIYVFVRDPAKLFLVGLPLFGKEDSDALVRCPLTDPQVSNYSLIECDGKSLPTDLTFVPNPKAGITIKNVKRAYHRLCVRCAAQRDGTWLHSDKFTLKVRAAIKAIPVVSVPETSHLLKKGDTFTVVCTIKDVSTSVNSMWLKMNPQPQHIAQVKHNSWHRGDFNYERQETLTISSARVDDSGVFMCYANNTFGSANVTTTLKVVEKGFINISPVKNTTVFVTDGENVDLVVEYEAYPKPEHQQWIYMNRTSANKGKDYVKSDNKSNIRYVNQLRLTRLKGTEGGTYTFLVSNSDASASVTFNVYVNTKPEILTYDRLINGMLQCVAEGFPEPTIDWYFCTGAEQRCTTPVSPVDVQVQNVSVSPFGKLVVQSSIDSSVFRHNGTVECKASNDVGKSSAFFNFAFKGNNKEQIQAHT


Columns and labels:
cyno CD117 = target: T2, cyno CD117 (Macaca fascicularis, UniProt A0A7N9CP24); assay: Carterra SPR, cyno CD117
T2 construct: antigen of the Carterra SPR kinetics; also called cynomolgus monkey CD117
T2 sequence (A0A7N9CP24 entry or part of it): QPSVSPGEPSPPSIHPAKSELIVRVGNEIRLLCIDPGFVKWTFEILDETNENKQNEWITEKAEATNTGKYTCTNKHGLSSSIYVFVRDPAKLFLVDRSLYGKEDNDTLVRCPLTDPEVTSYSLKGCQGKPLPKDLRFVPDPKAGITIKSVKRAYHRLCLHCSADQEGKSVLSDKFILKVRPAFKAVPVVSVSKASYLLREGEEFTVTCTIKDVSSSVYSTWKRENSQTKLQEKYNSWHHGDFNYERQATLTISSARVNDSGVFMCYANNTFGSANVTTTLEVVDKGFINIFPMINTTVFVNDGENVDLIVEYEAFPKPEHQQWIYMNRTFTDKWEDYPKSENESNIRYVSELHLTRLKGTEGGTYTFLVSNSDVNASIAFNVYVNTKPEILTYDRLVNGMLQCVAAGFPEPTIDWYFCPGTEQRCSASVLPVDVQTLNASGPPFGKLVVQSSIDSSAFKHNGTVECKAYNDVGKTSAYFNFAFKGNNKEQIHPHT
Method: (§1) To further evaluate the antibodies discovered during the screens, 21 clones were selected for detailed characterization and were analyzed for target binding kinetics by a Carterra SPR instrument. The binding kinetics of the anti-CD117 antibodies for human CD117, cynomolgus monkey CD117, and murine CD117 are shown in FIG. 29A-29B.

[1] = target: T3, Cluster of differentiation 117 (CD117), antigen of epitope binning and ELISA (UniProt P10721 26-520, limits assumed); assay: Carterra SPR, human CD117
T3 construct: also called tyrosine-protein kinase KIT; mast/stem cell growth factor receptor (SCFR)
T3 sequence (P10721 26-520 limits assumed): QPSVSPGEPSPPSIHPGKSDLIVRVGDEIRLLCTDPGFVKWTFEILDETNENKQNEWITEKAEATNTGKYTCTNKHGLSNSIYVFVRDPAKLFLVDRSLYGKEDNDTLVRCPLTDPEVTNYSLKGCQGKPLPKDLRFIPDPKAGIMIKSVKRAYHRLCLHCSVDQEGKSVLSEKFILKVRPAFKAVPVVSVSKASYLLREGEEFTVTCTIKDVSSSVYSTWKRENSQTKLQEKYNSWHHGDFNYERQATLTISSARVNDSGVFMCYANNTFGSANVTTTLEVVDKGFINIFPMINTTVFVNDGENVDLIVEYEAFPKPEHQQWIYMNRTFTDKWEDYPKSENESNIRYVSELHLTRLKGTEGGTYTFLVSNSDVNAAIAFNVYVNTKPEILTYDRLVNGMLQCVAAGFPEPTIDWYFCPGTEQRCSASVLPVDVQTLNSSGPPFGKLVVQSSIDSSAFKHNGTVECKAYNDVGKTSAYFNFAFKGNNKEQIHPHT
Method: as §1

mouse CD117 = target: T1, mouse CD117; assay: Carterra SPR, mouse CD117
Method: as §1

[2] = target: T4, CD117 transiently expressed on Expi293 cells (UniProt P10721 26-976, limits assumed); assay: FACS, MFI expressing / parental cells
T4 construct: whole, on cells; Two cassettes are described (P2A mVenus and direct mVenus fusion); also called CD117 transient cells; the transient cell line
T4 sequence (P10721 26-976 limits assumed): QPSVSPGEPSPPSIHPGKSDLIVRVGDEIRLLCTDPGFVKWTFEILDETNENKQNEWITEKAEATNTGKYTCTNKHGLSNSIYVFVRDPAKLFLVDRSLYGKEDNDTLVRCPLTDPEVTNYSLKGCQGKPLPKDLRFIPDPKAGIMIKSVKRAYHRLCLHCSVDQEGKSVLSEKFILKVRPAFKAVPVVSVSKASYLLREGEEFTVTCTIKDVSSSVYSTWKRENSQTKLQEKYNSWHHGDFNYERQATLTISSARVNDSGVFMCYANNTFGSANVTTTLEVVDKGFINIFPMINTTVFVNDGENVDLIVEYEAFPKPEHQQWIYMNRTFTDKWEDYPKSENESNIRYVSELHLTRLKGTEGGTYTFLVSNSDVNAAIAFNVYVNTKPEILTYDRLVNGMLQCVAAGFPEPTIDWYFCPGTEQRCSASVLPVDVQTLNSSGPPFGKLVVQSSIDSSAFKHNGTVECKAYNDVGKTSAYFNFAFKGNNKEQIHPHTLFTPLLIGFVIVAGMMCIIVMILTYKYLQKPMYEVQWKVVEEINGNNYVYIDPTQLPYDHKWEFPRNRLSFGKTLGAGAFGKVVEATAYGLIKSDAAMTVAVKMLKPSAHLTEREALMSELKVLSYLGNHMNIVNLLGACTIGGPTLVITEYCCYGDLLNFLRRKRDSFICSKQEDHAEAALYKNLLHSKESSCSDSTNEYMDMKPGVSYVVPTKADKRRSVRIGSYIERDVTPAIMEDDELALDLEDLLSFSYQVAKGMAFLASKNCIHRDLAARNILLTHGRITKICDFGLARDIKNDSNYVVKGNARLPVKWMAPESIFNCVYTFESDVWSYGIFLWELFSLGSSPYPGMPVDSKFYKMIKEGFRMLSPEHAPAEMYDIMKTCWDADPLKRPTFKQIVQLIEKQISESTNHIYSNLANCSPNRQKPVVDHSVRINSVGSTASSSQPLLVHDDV
Method: (§2) The transient expression of CD117 was validated with a control antibody, Expi293 (FIGS. 17A-17B). Expi293, […], was transiently transfected with CD117 48-hours post-transfection. The secondary antibody used was APC Goat anti-human IgG (diluted 1:400). 100,000 cells per well were blocked with 1×PBS+0.5% BSA for 1 hour, stained with 100 μL of the primary antibody for 1 hour, and stained with the secondary antibody for one hour, all with 3× washes in between each staining.

[3] = target: T4, CD117 transiently expressed on Expi293 …; assay: FACS cell binding, Expi293 transiently expressing CD117
Method: as §2

Binder	Kd (cyno CD117) [nM]	koff (cyno CD117) [s⁻¹]	kon (cyno CD117) [M⁻¹ s⁻¹]	binding result [1]	binding result (mouse CD117)	MFI Ratio [2]	EC50 [3] [nM]	Kd [1] [nM]	koff [1] [s⁻¹]	kon [1] [M⁻¹ s⁻¹]
CD117-10 (antibody, human IgG1, kappa, V domains shown, detected with anti-human IgG in FACS) VH: EVQLLESGGGLVQPGGSLRLSCAASGFIFSSYAMTWVRQAPGKGLEWVSSISGRGGNTYYADSVKGRFTISRDNSKNTLYLQMNSLRAEDTAVYYCAKMMDDFYDAFNMWGQGTLVTVSS VL: DIQMTQSPSSLSASVGDRVTITCRASQSIRTYLNWYQQKPGKAPKLLIYDASSLESGVPSRFSGSGSGTDFTLTISSLQPEDFATYYCQQSFTTPYTFGGGTKVEIKR	26600	0.916	34400	no binding	no binding	21.2	91.3	–	–	–
CD117-17 (antibody, human IgG1, kappa, V domains shown, detected with anti-human IgG in FACS) VH: EVQLLESGGGLVQPGGSLRLSCAASGFTFSDYPMSWVRQAPGKGLEWVSAIGGSGGDTYYADSVKGRFTISRDNSKNTLYLQMNSLRAEDTAVYYCARGAYDGEGFDYWGQGTLVTVSS VL: DIQMTQSPSSLSASVGDRVTITCRASQTISGYLNWYQQKPGKAPKLLIYDASTLQRGVPSRFSGSGSGTDFTLTISSLQPEDFATYYCQQNYRTPFTFGGGTKVEIKR	92.6	0.0673	727000	–	no binding	20.1	7.58	3	0.00406	1.35e+06
CD117-11 (antibody, human IgG1, kappa, V domains shown, detected with anti-human IgG in FACS) VH: EVQLLESGGGLVQPGGSLRLSCAASGFTFGNFAMSWVRQAPGKGLEWVSLISGSGGNTYYADSVKGRFTISRDNSKNTLYLQMNSLRAEDTAVYYCARGDGVNGFDYWGQGTLVTVSS VL: DIQMTQSPSSLSASVGDRVTITCRASQSIPTYLNWYQQKPGKAPKLLIYATSTLESGVPSRFSGSGSGTDFTLTISSLQPEDFATYYCQQTYSTPYTFGGGTKVEIKR	338	0.0681	201000	–	no binding	17.2	4.31	270	0.0679	252000
CD117-18 (antibody, human IgG1, kappa, V domains shown, detected with anti-human IgG in FACS) VH: EVQLLESGGGLVQPGGSLRLSCAASGFTFSDYSMNWVRQAPGKGLEWVSAITGSGGNTFYADSVKGRFTISRDNSKNTLYLQMNSLRAEDTAVYYCARSNYEQDVFDIWGQGTLVTVSS VL: DIQMTQSPSSLSASVGDRVTITCRASQTIYRYLNWYQQKPGKAPKLLIYDASDLQSGVPSRFSGSGSGTDFTLTISSLQPEDFATYYCQQSYSIPITFGGGTKVEIKR	5.02	0.00679	1.35e+06	–	no binding	16.2	20	2.53	0.00336	1.33e+06
CD117-20 (antibody, human IgG1, kappa, V domains shown, detected with anti-human IgG in FACS) VH: EVQLLESGGGLVQPGGSLRLSCAASGFTFSSDAMNWVRQAPGKGLEWVSGISGSGGYTYYADSVKGRFTISRDNSKNTLYLQMNSLRAEDTAVYYCARSGNVVGDGMDVWGQGTLVTVSS VL: DIQMTQSPSSLSASVGDRVTITCRASQNIRRYLNWYQQKPGKAPKLLIYDASTLESGVPSRFSGSGSGTDFTLTISSLQPEDFATYYCQQSHTTPLTFGGGTKVEIKR	4120	0.298	72200	no binding	no binding	14.4	6.24	–	–	–
CD117-19 (antibody, human IgG1, kappa, V domains shown, detected with anti-human IgG in FACS) VH: EVQLLESGGGLVQPGGSLRLSCAASGFSFSSYAMSWVRQAPGKGLEWVSAISGTGGNTYYADSVKGRFTISRDNSKNTLYLQMNSLRAEDTAVYYCARRNDFWSDAFDIWGQGTLVTVSS VL: DIQMTQSPSSLSASVGDRVTITCRASQNIYTYLNWYQQKPGKAPKLLIYDASSLHSGVPSRFSGSGSGTDFTLTISSLQPEDFATYYCQQSYSSSITFGGGTKVEIKR	20.8	0.0272	1.31e+06	–	no binding	12.9	3.29	5.87	0.00388	662000
